The target in the experiment is T1, wild-type CHIP (carboxyl terminus of Hsc70-interacting protein) (human), Q9UNE7.
T1 chain: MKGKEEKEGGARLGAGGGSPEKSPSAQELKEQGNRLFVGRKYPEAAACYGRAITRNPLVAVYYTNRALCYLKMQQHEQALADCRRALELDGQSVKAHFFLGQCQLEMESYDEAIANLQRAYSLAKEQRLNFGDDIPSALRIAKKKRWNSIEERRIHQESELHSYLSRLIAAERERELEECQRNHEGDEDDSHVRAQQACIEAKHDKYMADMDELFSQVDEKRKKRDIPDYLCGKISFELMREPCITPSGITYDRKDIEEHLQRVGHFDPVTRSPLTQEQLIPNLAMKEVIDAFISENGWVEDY
In words: SEC. The settings on record: remark: other sources report otherwise.

By stoichiometry N is commonly meant the number of molecules, sites or subunits per partner or assembly.

B1: wild-type CHIP (carboxyl terminus of Hsc70-interacting protein), Q9UNE7 1-303 (enzyme)
chain: MKGKEEKEGGARLGAGGGSPEKSPSAQELKEQGNRLFVGRKYPEAAACYGRAITRNPLVAVYYTNRALCYLKMQQHEQALADCRRALELDGQSVKAHFFLGQCQLEMESYDEAIANLQRAYSLAKEQRLNFGDDIPSALRIAKKKRWNSIEERRIHQESELHSYLSRLIAAERERELEECQRNHEGDEDDSHVRAQQACIEAKHDKYMADMDELFSQVDEKRKKRDIPDYLCGKISFELMREPCITPSGITYDRKDIEEHLQRVGHFDPVTRSPLTQEQLIPNLAMKEVIDAFISENGWVEDY
For the molecule B1, the stoichiometry N is 2.

Source of the values: doi:10.1101/2021.04.16.440242.
